Results published in US20260132208A1 (DOMAIN THERAPEUTICS, published 2026).
Changes are numbered by the printed parent chain. Values joined by “and” are separate entries in the source; they are usually repeats but may differ in a detail not shown here. Equal values may be shown once.

B1: anti-CCR8 mAb 1-23 (antibody, human IgG1, kappa, V domains shown)
VH: QVQLVQSGPEVVKPGASVKVSCKTSGYTFTEYTIHWVRQAPGQSLEWVGGINPNNGNTRYDQKFQGRVTITRDKSASTAYMELRSLTSEDTAVYYCARVARSSGSGPYAMDYWGQGTTVTVSS
VL: DVVMTQSPLSLPVTLGDQASISCRCSQSLLHTNGDTYLHWYLQRPGQSPRLLIYKVSNRFSGVPDRFSGSGSGTDFTLKISRVEAEDVGVYFCSQSTHVPYTFGGGTKVEIKR
notes: Humanized mAb, human IgG1 / kappa
B2: anti-CCR8 mAb 1-24 (antibody, human IgG1, kappa, V domains shown)
VH: B1 VH with V5Q, A40S, P41H, Q65K, R72I, A76S
VL: B1 VL
notes: as for B1
B3: anti-CCR8 mAb 1-34 (antibody, human IgG1, kappa)
heavy: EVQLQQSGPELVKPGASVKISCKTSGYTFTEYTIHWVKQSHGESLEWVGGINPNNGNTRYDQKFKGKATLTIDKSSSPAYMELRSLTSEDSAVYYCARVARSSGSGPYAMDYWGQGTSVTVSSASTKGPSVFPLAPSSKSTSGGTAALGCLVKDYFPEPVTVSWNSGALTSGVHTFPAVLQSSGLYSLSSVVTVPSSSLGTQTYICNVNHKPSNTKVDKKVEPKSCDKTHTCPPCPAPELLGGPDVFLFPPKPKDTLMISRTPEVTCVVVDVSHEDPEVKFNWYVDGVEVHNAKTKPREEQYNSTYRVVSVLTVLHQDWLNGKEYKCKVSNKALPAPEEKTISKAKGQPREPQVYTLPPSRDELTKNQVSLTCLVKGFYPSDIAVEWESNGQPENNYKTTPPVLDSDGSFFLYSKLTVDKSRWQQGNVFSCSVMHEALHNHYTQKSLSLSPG
light: DVVMTQTPLSLPVSLGDQASISCRCTQSLLHTNGDTYLHWYLQKPGQSPKLLIYKVSNRFSGVPDRFSGSGSGTDFTLKISRVEAEDLGVYFCSQSTHVPYTFGGGTKLEIKRTVAAPSVFIFPPSDEQLKSGTASVVCLLNNFYPREAKVQWKVDNALQSGNSQESVTEQDSKDSTYSLSSTLTLSKADYEKHKVYACEVTHQGLSSPVTKSFNRGEC
B4: anti-CCR8 mAb 1-21 (antibody, human IgG1, kappa)
heavy: not shown
light: DIVMTQAAPSLSVTPGESASISCTSSKSLLHSNGNTYLYWFLQKPGQSPQLLIYRMSNLASGVPDRFSGSGSGTAFTLKISRVEAEDVGVYYCMQHREYPFTFGSGTKLEIKRTVAAPSVFIFPPSDEQLKSGTASVVCLLNNFYPREAKVQWKVDNALQSGNSQESVTEQDSKDSTYSLSSTLTLSKADYEKHKVYACEVTHQGLSSPVTKSFNRGEC
notes: Humanized mAb; Fc from human IgG1 allotype G1m17 with the terminal lysine deleted and the SDIE mutations (already in the entry)
B5: anti-CCR8 mAb 1-26 (antibody, human IgG1, kappa)
heavy: not shown
light: B4 light
modifications: afucosylated Fc glycan
notes: Afucosylated humanized mAb; same chains as 1-21

Assays:
human CCR8 [1] = target: T1, human CCR8 (human, UniProt P51685 1-355); assay: cell-based or functional assay
[2] = target: T2, human CCR8 with a SNAP-tag at the N-terminus (human, UniProt P51685 1-355, SNAP-tag labelled covalently with Lumi4-Terbium); assay: HTRF Tag-lite, inhibition of hCCL1-AF647 binding to SNAP-hCCR8 on HEK-293 cells
T2 construct: also called hCCR8 SNAP-tag; CCR8 SNAP-tag
Description: The inhibition of CCL1 binding to hCCR8 was evaluated with the Tag-Lite® technology from Cisbio (Revvity). Human CCR8 is engineered with a SNAP-tag at the N-terminus of the GPCR. hCCR8 SNAP-tag is transiently transfected on HEK-293 cell line using FuGene® (Promega, Madison, WI, USA). 48 hours after transfection, cells are labeled with the substrate Lumi4-Terbium® (Cisbio, Codolet, France) which covalently reacts with the SNAP-tag, for 1 h at 37° C. Thawed or freshly labeled cells are plated in a 384 low volume white plate (GREINER Bio-One, Courtaboeuf, France) (10000 cells/well/10 μl). […] The Kd was previously obtained in a saturation binding assay on the same cells. […] The plate is next incubated at 21° C. for 2 h. Detection of HTRF signal is performed on the multiplate reader EnVision (PerkinElmer, Waltham, MA, USA). The HTRF (665/620) ratio is calculated by EnVision software, the data exported are considered as the total binding. The specific binding is calculated then by subtracting the non-specific signal from the total binding. The Ki and IC₅₀ are calculated using the “One site-Fit Ki” and “One site-FitlogIC50” from GraphPad Prism 9 (Graphpad Software, San Diego, CA, USA), respectively.

human CCR8 [3] = target: T1, human CCR8; assay: flow cytometry, HUT78 cells (endogenous CCR8)
Description: In human activated T cells model, prior to mAb incubation, cells were first incubated with 200 nM of hCCL1 (R&D Systems, Minneapolis, MN, USA) or buffer PBS (Invitrogen by Thermofisher Scientific, Illkirch-Graffenstaden, France) supplemented by 2% Fetal Bovine Serum (Invitrogen by Thermofisher Scientific, Illkirch-Graffenstaden, France) and 2 mM EDTA (Invitrogen by Thermofisher Scientific, Illkirch-Graffenstaden, France) during 1 hour at 4° C. To determine EC50 value, 8 concentrations of anti-CCR8 mAb were tested. Unbound antibodies were washed away with PBS (Invitrogen by Thermofisher Scientific, Illkirch-Graffenstaden, France) supplemented by 2% Fetal Bovine Serum (Invitrogen by Thermofisher Scientific, Illkirch-Graffenstaden, France) and 2 mM EDTA (Invitrogen by Thermofisher Scientific, Illkirch-Graffenstaden, France). Subsequently, cells are centrifuged (5 min at 400 g) and bound antibody is detected with F(ab′)2-Goat anti-Mouse IgG (H+L) Cross-Adsorbed Secondary Antibody, Alexa Fluor 488 (dilution 1/500) (Invitrogen by Thermofisher Scientific, Illkirch-Graffenstaden, France) or with F(ab′)₂-Goat anti-Human IgG Fc Secondary Antibody, PE (Invitrogen by Thermofisher Scientific, Illkirch-Graffenstaden, France) (dilution 1/1000) at 4° C. for 30 min. Detection reagent is washed away and cells are centrifuged (5 min at 400 g) and resuspended in 30 μL PBS. Bound detection antibody is quantified on a MacsQuant16 (Miltenyi, Gladbach, Germany) (B1 or B2 channel, 5000 events per acquisition). During the experiment, the respective isotype mAb controls (mouse IgG1, mouse IgG2a, mouse IgG2b, mouse IgG3 or human IgG1) (Biolegend, Amsterdam, The Netherlands) are included to exclude any unspecific binding events. EC50 values were determined via nonlinear fit “log (agonist) vs.response—Variable slope (four parameters)” function of Graphpad prism. EC50 values were not constantly determined in the same experiments.
Anti-CCR8 mAb cellular reactivity was also evaluated on native human CCR8 from HUT78 cell line by flow cytometry. In Table 4.3, Mean Fluorescence Intensity (Fold change to isotype control), the percentage of labelled cells and EC50 in nM of some anti-CCR8 antibodies are presented.

human CCR8 [4] = target: T1, human CCR8; assay: cell-based or functional assay; remark: listed apart in the source
pm3 = target: T3, pm3 (Y17 sulfated; Y15 and Y16 not sulfated); assay: ELISA on coated peptide [cont.]
T3 construct: also called sulfated CCR8 N-terminal peptide pm3
T3 sequence (peptide, as listed by the source): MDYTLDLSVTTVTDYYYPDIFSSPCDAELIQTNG
Method in brief: (§1)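 Binding signal was the OD following TMB colour development for 15 min. The mAbs (1 μg/mL and a 1/10 dilution) were incubated 90 min at room temperature on wells coated with 500 ng/ml peptide.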

pm5 = target: T4, pm5 (Y15 and Y17 sulfated; Y16 not sulfated); assay: ELISA on coated peptide [cont.]
T4 construct: also called sulfated CCR8 N-terminal peptide pm5
T4 sequence (peptide, as listed by the source): as above
Method in brief: as §1

pm2 = target: T5, pm2 (sulfated tyrosine(s) among Y15, Y16, Y17; which ones is not told (the underlining of Table 1 is lost in the text)); assay: ELISA on coated peptide [cont.]
T5 construct: also called sulfated CCR8 N-terminal peptide pm2
T5 sequence (peptide, as listed by the source): as above
Method in brief: as §1

pm1 = target: T6, pm1 (sulfated tyrosine(s) among Y15, Y16, Y17; which ones is not told (the underlining of Table 1 is lost in the text)); assay: ELISA on coated peptide [cont.]
T6 construct: also called sulfated CCR8 N-terminal peptide pm1
T6 sequence (peptide, as listed by the source): as above
Method in brief: as §1

pwt1 = target: T7, pwt1 (none (unmodified peptide)); assay: ELISA on coated peptide [cont.]
T7 construct: also called unmodified CCR8 N-terminal peptide
T7 sequence (peptide, as listed by the source): as above
Method in brief: as §1

pm4 = target: T8, pm4 (sulfated tyrosine(s) among Y15, Y16, Y17; which ones is not told (the underlining of Table 1 is lost in the text)); assay: ELISA on coated peptide [cont.]
T8 construct: also called sulfated CCR8 N-terminal peptide pm4
T8 sequence (peptide, as listed by the source): as above
Method in brief: as §1

pm8 = target: T9, pm8 (Y15, Y16 and Y17 sulfated); assay: ELISA on coated peptide [cont.]
T9 construct: also called sulfated CCR8 N-terminal peptide pm8
T9 sequence (peptide, as listed by the source): as above
Method in brief: as §1

pm6 = target: T10, pm6 (Y16 and Y17 sulfated; Y15 not sulfated); assay: ELISA on coated peptide [cont.]
T10 construct: also called sulfated CCR8 N-terminal peptide pm6
T10 sequence (peptide, as listed by the source): as above
Method in brief: as §1

[5] = target: T2, human CCR8 with a SNAP-tag at the …; assay: cell-based or functional assay
human CCR8 [6] = target: T1, human CCR8; assay: cell-based or functional assay; remark: listed apart in the source
human CCR8 [7] = target: T1, human CCR8; assay: cell-based or functional assay; remark: listed apart in the source
human CCR8 [8] = target: T1, human CCR8; assay: cell-based or functional assay; remark: listed apart in the source
human CCR8 [9] = target: T1, human CCR8; assay: cell-based or functional assay; remark: listed apart in the source
human CCR8 [10] = target: T1, human CCR8; assay: cell-based or functional assay; remark: listed apart in the source

| Binder | residual hCCL1 (100 nM) Gi2 response, protocol #2, mAb 0.08 µg/mL (human CCR8 [1]) | residual hCCL1 (100 nM) Gi2 response, protocol #2, mAb 0.4 µg/mL (human CCR8 [1]) | residual hCCL1 (100 nM) Gi2 response, protocol #2, mAb 10 µg/mL (human CCR8 [1]) | residual hCCL1 (100 nM) Gi2 response, protocol #3, mAb 0.05 µg/mL (human CCR8 [1]) | residual hCCL1 (100 nM) Gi2 response, protocol #3, mAb 0.5 µg/mL (human CCR8 [1]) | residual hCCL1 (100 nM) Gi2 response, protocol #3, mAb 5 µg/mL (human CCR8 [1]) | IC50 [2] | Ki [2] | % of labelled cells (human CCR8 [3]) | extrapolated top plateau of hCCL1 curve with 5 µg/mL mAb, protocol #3 (human CCR8 [4]) | binding result (pm3) | binding result (pm5) | binding result (pm2) | binding result (pm1) | binding result (pwt1) | binding result (pm4) | binding result (pm8) | binding result (pm6) | IC50 of CCL1-induced hCCR8 Gi2 signaling (BRET, HEK-293) (human CCR8 [7]) | ADCP % max phagocytosis, HUT78 targets, MDM donor 9 (human CCR8 [8]) | further results |
| --- | --- | --- | --- | --- | --- | --- | --- | --- | --- | --- | --- | --- | --- | --- | --- | --- | --- | --- | --- | --- | --- |
| B1 | 67% | 55% | 32% | 86% | 60% | 42% | 0.04 µg/mL | 0.02 µg/mL | 96% | 569000 % of hCCL1 (100 nM) | binds | binds | binds | binds | binds | binds | binds | binds | 0.022 µg/mL and 0.148 nM | – | % hCCR8 internalization with CCL1 300 nM, mAb 1 µg/ml (HTRF) [5]: 44%; % hCCR8 internalization with CCL1 300 nM, mAb 10 µg/ml (HTRF) [5]: 29%; ADCC % max lysis, HUT78 targets, NK donor 3 (human CCR8 [6]): 15%; ADCC % max lysis, HUT78 targets, NK donor 4 (human CCR8 [6]): 16%; ADCC EC50, HUT78 targets, NK donor 3 (human CCR8 [6]): 0.505 nM; ADCC EC50, HUT78 targets, NK donor 4 (human CCR8 [6]): 0.573 nM |
| B2 | 77% | 66% | 41% | 73% | 52% | 37% | 0.04 µg/mL | 0.02 µg/mL | 88% | 366000 % of hCCL1 (100 nM) | binds | binds | binds | binds | binds | binds | binds | binds | 0.034 µg/mL and 0.224 nM | – | EC50 (human CCR8 [3]): 0.2 nM; % hCCR8 internalization with CCL1 300 nM, mAb 1 µg/ml (HTRF) [5]: 44%; % hCCR8 internalization with CCL1 300 nM, mAb 10 µg/ml (HTRF) [5]: 36% |
| B3 | – | – | – | – | – | – | – | – | – | – | – | – | – | – | – | – | – | – | – | 7.27% | ADCC % max lysis, HUT78 targets, NK donor 3 (human CCR8 [6]): 25%; ADCC % max lysis, HUT78 targets, NK donor 4 (human CCR8 [6]): 28%; ADCC EC50, HUT78 targets, NK donor 3 (human CCR8 [6]): 0.218 nM; ADCC EC50, HUT78 targets, NK donor 4 (human CCR8 [6]): 0.053 nM |
| B4 | 74% | 54% | 40% | 89% | 63% | 51% | 0.09 µg/mL and 0.6 nM | 0.05 µg/mL and 0.3 nM | 32% | 138000 % of hCCL1 (100 nM) | binds | binds | binds | binds | binds | binds | binds | binds | 0.035 µg/mL and 0.232 nM | 9.65% | ADCC % max lysis, HUT78 targets, NK donor 1 (human CCR8 [9]): 30%; ADCC % max lysis, HUT78 targets, NK donor 2 (human CCR8 [9]): 28%; ADCC EC50, HUT78 targets, NK donor 1 (human CCR8 [9]): 0.00643 nM; ADCC EC50, HUT78 targets, NK donor 2 (human CCR8 [9]): 0.00042 nM; IC50 of CCL1-induced hCCR8 Gi2 signaling (BRET), pH 6.5 (human CCR8 [10]): 0.025 µg/ml and 0.165 nM; IC50 of CCL1-induced hCCR8 Gi2 signaling (BRET), pH 7.4 (human CCR8 [10]): 0.035 µg/ml and 0.232 nM |
| B5 | – | – | – | – | – | – | – | – | 34% | – | – | – | – | – | – | – | – | – | – | 8.29% | EC50 (human CCR8 [3]): 0.4 nM; MFI fold change to isotype ctrl (human CCR8 [3]): 2.5 fold; ADCC % max lysis, HUT78 targets, NK donor 1 (human CCR8 [9]): 22%; ADCC % max lysis, HUT78 targets, NK donor 2 (human CCR8 [9]): 20%; ADCC EC50, HUT78 targets, NK donor 1 (human CCR8 [9]): 0.00224 nM; ADCC EC50, HUT78 targets, NK donor 2 (human CCR8 [9]): 0.00216 nM |
